In US10501493B2, “Broad spectrum antibiotics” (priority 2011, dated 2019):

Key:
[1] = target: Full length His-tagged S. aureus SPase (S. aureus) (UniProt P0A070); assay: fluorescence binding titration; compound conc. 2000 (unit inferred)
[2] = target: Full length His-tagged S. aureus SPase (S. aureus) (UniProt P0A070); assay: fluorescence binding titration; compound conc. 31.25 (unit inferred)
[3] = target: Full length His-tagged E. coli SPase (E. coli) (UniProt P00803); assay: fluorescence binding titration; compound conc. 1.E+03 (unit inferred)
[4] = target: Full length His-tagged S. aureus SPase (S. aureus) (UniProt P0A070); assay: fluorescence binding titration; compound conc. 250 (unit inferred)
[5] = target: Full length His-tagged S. aureus SPase (S. aureus) (UniProt P0A070); assay: fluorescence binding titration; compound conc. 1000 (unit inferred)
[6] = target: Full length His-tagged S. aureus SPase (S. aureus) (UniProt P0A070); assay: fluorescence binding titration; compound conc. 62.5 (unit inferred)
[7] = target: Full length His-tagged E. coli SPase (E. coli) (UniProt P00803); assay: fluorescence binding titration; compound conc. 1.E+02 (unit inferred)
[8] = target: Full length His-tagged S. aureus SPase (S. aureus) (UniProt P0A070); assay: fluorescence binding titration; compound conc. 500 (unit inferred)
[9] = target: Full length His-tagged S. aureus SPase (S. aureus) (UniProt P0A070); assay: fluorescence binding titration; compound conc. 4000 (unit inferred)
[10] = target: Full length His-tagged S. aureus SPase (S. aureus) (UniProt P0A070); assay: fluorescence binding titration; compound conc. 15.625 (unit inferred)
[11] = target: Full length His-tagged E. coli SPase (E. coli) (UniProt P00803); assay: fluorescence binding titration; compound conc. 5.E+02 (unit inferred)
[12] = target: Full length His-tagged S. aureus SPase (S. aureus) (UniProt P0A070); assay: fluorescence binding titration; compound conc. 125 (unit inferred)
[13] = target: Full length His-tagged E. coli SPase (E. coli) (UniProt P00803); assay: fluorescence binding titration; compound conc. 2.E+03 (unit inferred)
[14] = target: Full length His-tagged E. coli SPase (E. coli) (UniProt P00803); assay: fluorescence binding titration; compound conc. 6.E+01 (unit inferred)
[15] = target: Full length His-tagged E. coli SPase (E. coli) (UniProt P00803); assay: fluorescence binding titration; compound conc. 3.E+02 (unit inferred)
[16] = target: Full length His-tagged E. coli SPase (E. coli) (UniProt P00803); assay: fluorescence binding titration; compound conc. 3.E+01 (unit inferred)
[17] = target: Full length His-tagged E. coli SPase (E. coli) (UniProt P00803); assay: fluorescence binding titration; compound conc. 4.E+03 (unit inferred)
[18] = target: Full length His-tagged E. coli SPase (E. coli) (UniProt P00803); assay: fluorescence binding titration; compound conc. 0.E+00 (unit inferred)
[19] = target: Full length His-tagged E. coli SPase (E. coli) (UniProt P00803); assay: fluorescence binding titration; compound conc. 2.E+01 (unit inferred)
[20] = target: Full length His-tagged S. aureus SPase (S. aureus) (UniProt P0A070); assay: fluorescence binding titration; compound conc. 8000 (unit inferred)
[21] = target: Full length His-tagged E. coli SPase (E. coli) (UniProt P00803); assay: fluorescence binding titration; compound conc. 8.E+00 (unit inferred)
[22] = target: T1, decanyol-LTPTAY^NO2 A ASKK^abzDD (SEQ ID NO: 2)
T1 chain: LTPTAYAASKKDD

[23] = target: T2, decanoyl-LSSPA Y^NO2 A ADK^abzPD (SEQ ID NO: 1)
T2 chain: LSSPAYAADKPD

Chain of Full length His-tagged E. coli SPase (E. coli) (P00803 whole entry): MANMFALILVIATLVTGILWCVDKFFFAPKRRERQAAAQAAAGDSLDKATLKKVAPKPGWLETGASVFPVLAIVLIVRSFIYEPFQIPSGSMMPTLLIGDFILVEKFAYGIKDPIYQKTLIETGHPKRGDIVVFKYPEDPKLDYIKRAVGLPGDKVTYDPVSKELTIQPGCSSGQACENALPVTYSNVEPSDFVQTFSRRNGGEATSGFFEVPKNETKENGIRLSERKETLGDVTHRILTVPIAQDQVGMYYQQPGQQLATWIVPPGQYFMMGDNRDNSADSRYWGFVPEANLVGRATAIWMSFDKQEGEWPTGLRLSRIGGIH

Compound 1 (arylomycin C16) (peptide)
% Comp calc [1]: 77.1% | % Comp obs [1]: 86.1% | % Comp calc [2]: 3.8% | % Comp obs [2]: 4.9% | % Comp calc [3]: 96% | % Comp obs [3]: 98% | % Comp calc [4]: 25.4% | % Comp obs [4]: 25.6% | % Comp calc [5]: 61.1% | % Comp obs [5]: 59.1% | % Comp calc [6]: 7.4% | % Comp obs [6]: 6.4% | % Comp calc [7]: 71% | % Comp obs [7]: 69% | % Comp calc [8]: 42% | % Comp obs [8]: 38.6% | % Comp calc [9]: 87.6% | % Comp obs [9]: 87.3% | % Comp calc [10]: 1.9% | % Comp obs [10]: 1.7% | % Comp calc [11]: 92% | % Comp obs [11]: 92% | % Comp calc [12]: 14% | % Comp obs [12]: 13.7% | % Comp calc [13]: 98% | % Comp obs [13]: 102% | % Comp calc [14]: 51% | % Comp obs [14]: 53% | % Comp calc [15]: 85% | % Comp obs [15]: 81% | % Comp calc [16]: 31% | % Comp obs [16]: 32% | % Comp calc [17]: 99% | % Comp obs [17]: 95% | % Comp calc [18]: 0% | % Comp obs [18]: -1% | % Comp calc [19]: 17% | % Comp obs [19]: 16% | % Comp calc [20]: 93.6% | % Comp obs [20]: 87.8% | % Comp calc [21]: 9% | % Comp obs [21]: 10%

B1: Full length His-tagged S. aureus SPase (protein)
chain: MKKELLEWIISIAVAFVILFIVGKFIVTSYTIKGESMDPTLKDGERVAVNIIGYKTGGLEKGNVVVFHANKNDDYVKRVIGVPGDKVEYKNDTLYVNGKKQDEPYLNYNLKHKQGDYITGTFQVKDLPNANPKSNVIPKGKYLVLGDNREVSKDSRAFGLIDEDQIVGKVSFRFWPFSEFKHNFNPENTKN
second order rate constant (Kcat/KM) of substrate cleavage [22]: 10^5 M^-1s^-1 | second order rate constant (Kcat/KM) of substrate cleavage [23]: 10^5 M^-1s^-1
